# Data taken from paper PMC7948501, “Structure of transmembrane prolyl 4-hydroxylase reveals unique organization of EF and dioxygenase domains” (The Journal of Biological Chemistry, 2020).
# B1: soluble human transmembrane prolyl 4-hydroxylase (P4H-TM), residues 88 to 502 with an N-terminal His-tag (enzyme, UniProt Q9NXG6-1 88-502, looked up)
# chain: DESSDPGPQHRAQGPGPEPTLGPLTRLEGIKVGHERKVQLVTDRDHFIRTLSLKPLLFEIPGFLTDEECRLIIHLAQMKGLQRSQILPTEEYEEAMSTMQVSQLDLFRLLDQNRDGHLQLREVLAQTRLGNGWWMTPESIQEMYAAIKADPDGDGVLSLQEFSNMDLRDFHKYMRSHKAESSELVRNSHHTWLYQGEGAHHIMRAIRQRVLRLTRLSPEIVELSEPLQVVRYGEGGHYHAHVDSGPVYPETICSHTKLVANESVPFETSCRYMTVLFYLNNVTGGGETVFPVADNRTYDEMSLIQDDVDLRDTRRHCDKGNLRVKPQQGTAVFWYNYLPDGQGWVGDVDDYSLHGGCLVTRGTKWIANNWINVDPSRARQALFQQEMARLAREGGTDSQPEWALDRAYRDARVEL
# modifications: N-linked glycans at Asn368 and Asn382
# notes: human transmembrane prolyl 4-hydroxylase (P4H-TM), isoform 1 (502 residues), residues 88-502; lacks the short cytoplasmic region and the transmembrane helix; then six histidines and residues 88-502; Calculated mass 48.3 kDa; also called soluble part of human P4H-TM; isoform 1; not shown: His6, N-terminal, kept
# Target: the molecule itself
# Experiment: SEC-SAXS; 7.4 mg/ml on Superdex 200 Increase 5/150, RT; 10 mM Tris HCl pH 7.8, 0.1 M NaCl, 0.1 M glycine, 1% glycerol, with and without 2 mM CaCl2; Bayesian molecular weight estimate
protein,measurement,value
B1,stoichiometry N,2
